# Assays:
# [1] = biological target: T1, PglC from H. pullorum (PglC (H. pu)) (Helicobacter pullorum, UniProt E1B268); experiment: UMP-Glo luminescence (UMP release), time course; type: biochemical; settings: 20 μM UDP-GlcNAc; 20 μM Und-P; 0.3 μM enzyme; 5 mM MgCl2; pH 7.5; 0.1% Triton X-100; 10% DMSO
# T1 construct: N-terminal His6-SUMO tag, tag cleavage not mentioned; E. coli BL21-RIL; DDM-solubilized membrane fraction, Ni-NTA
# [2] = test system: CC(=O)N[C@H]1[C@@H](OP(=O)(O)OP(=O)(O)OC[C@H]2O[C@@H](n3ccc(=O)[nH]c3=O)[C@H](O)[C@@H]2O)O[C@H](C)[C@@H](NC(C)=O)[C@@H]1O; experiment: purified protein; settings: 60 μM Und-P, 5 mM MgCl2, pH 7.5, room temperature, 0.1% Triton X-100, 10% DMSO
# [3] = test system: CC(C)=CCC/C(C)=C/CC/C(C)=C/CC/C(C)=C\CC/C(C)=C\CC/C(C)=C\CC/C(C)=C\CC/C(C)=C\CC/C(C)=C\CC/C(C)=C\CC/C(C)=C\COP(=O)(O)O; experiment: purified protein; settings: 80 μM UDP-diNAcBac, 5 mM MgCl2, pH 7.5, room temperature, 0.1% Triton X-100, 10% DMSO
# T1 sequence (E1B268 entry or part of it): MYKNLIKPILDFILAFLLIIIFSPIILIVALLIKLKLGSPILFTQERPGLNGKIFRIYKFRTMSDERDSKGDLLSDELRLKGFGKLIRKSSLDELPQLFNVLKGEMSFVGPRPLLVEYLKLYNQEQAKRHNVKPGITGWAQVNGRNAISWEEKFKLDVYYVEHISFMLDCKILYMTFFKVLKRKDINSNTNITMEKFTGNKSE
compound,measurement,setting,value
CC(=O)N[C@H]1[C@@H](OP(=O)(O)OP(=O)(O)OC[C@H]2O[C@@H](n3ccc(=O)[nH]c3=O)[C@H](O)[C@@H]2O)O[C@H](CO)[C@@H](O)[C@@H]1O [UDP-GlcNAc],"UMP-Glo luminescence (UMP release), time course",[1],demonstrates that the H. pullorum PglC catalyzes turnover of these substrates
CC(C)=CCC/C(C)=C/CC/C(C)=C/CC/C(C)=C\CC/C(C)=C\CC/C(C)=C\CC/C(C)=C\CC/C(C)=C\CC/C(C)=C\CC/C(C)=C\CC/C(C)=C\COP(=O)(O)O [Und-P],"UMP-Glo luminescence (UMP release), time course",[1],demonstrates that the H. pullorum PglC catalyzes turnover of these substrates
PglC from Campylobacter jejuni (SUMO-PglC) (Campylobacter jejuni subsp. jejuni NCTC 11168 = ATCC 700819),Km,[2],24.61 ± 3.30 µM
same,kcat,[2],5.67 ± 0.333 s⁻¹
same,Km,[3],7.18 ± 1.37 µM
same,kcat,[3],5.17 ± 0.333 s⁻¹

# — publication PMC5022061, “A Rapid and Efficient Luminescence-based Method for Assaying Phosphoglycosyltransferase Enzymes” (Scientific Reports, 2016)
